Laboratory results as given in the domain aggregation screens of Martell et al. (2025).

Experiment: soluble fraction after stress (log2 fold change); higher = more stays soluble; pooled small domains, quantitative proteomics
Conditions: stress: 75 degC
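Note: 20 min heating vs room temperature control held 20 min.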

Sequence	soluble fraction (log2)
HMLTDMSKIRKVLKLYGKGNSKLFISTYLSLSRNTVKKYISLFEVSGKTIEEILAKSDSELELLFSG	-0.981
HMLTEREQDTLNFIRQYIDEQGRSPLVSEIAKGLGIKSQGTTHRYIQALVDAGLLERHVGRTRGLHLT	-0.0653
HMLTGADAEKATAAAQAEFPGGTVLRVETDADGTYEAHVRKADGTEVEVKMDKDFKVTSVEE	0.142
HMLTLAVPNSINMRLDKYLSENIDYLSRSKIQGLINDGKVTINGENEKSSYKLNGDESIVIYYEE	-0.377
HMLTPQEIGSRLKLVRQGLQLKQQEVAEIIGTSQLKISKIEQGATVTTPDFLKLLAFYSQSVSLDILF	-0.546
HMLTRQRKQLLEYLSKHTDEQMTARQIADALTAESISISAVYRNLSALEEEGILKRSIRENTREVYYQYIA	-1.57
HMLTSIDQMLKLAMPDSDITVSKMNGLILLTGTVKAPEDAAEAERLVQAFSAPPPGQPPVTVVSRLRTA	-0.402
HMLTTMSSQWKPSLDAIEILEKSGIAYSFIEDAIPEFVLYWRERGISHGAWNTKFVEHIRKQWAKFEAS	-1.73
HMLTTVAAQRAALHQEEDITKLREIILKLVPFWGLDGGAYADKETSIQLERQYRESFDQAVSAARRSGQA	-0.335
HMLTWNQLGLITKPVVFLDGTGYYARLFEAFEHMISTGFVKENYRAMMNRATSVEEAVRIASSPAPKVD	-0.0438
HMLVGGPDTPSKVTVSFDLGSRQAVDELTERAGAAGGRIGDIDDYPFMYQRQFDDPDGYHYSPFWMKP	-0.177
HMLVTQSITVPMAMSGIRLDAALAMLFPDHSRNRLKAWLDDGHILVDGAVWAGKQRLEGNEEITATLPEAK	-0.673
HMLYDNQLPDWAGQMVKNHGLTISPKALVILVDHIGNDLSRIENEIEKLMLNLGTRKSITEDDVEN	-1.61
HMLYETLKKGDQGTSVKTLQEKLKALGYLTGAADGKYGAGTETAVKSFQKAAGLTETGTADPETLSAVYAA	0.619
HMLYITEIQKKIMDAFLVVANESNSGTRITMNEIANKVRMTPQAIYRKHFKSVIEISDTIRD	-0.551
HMMEERVIEFANVLRRNGVRVSLAENMDAFRALKSLGISDPLLFRHALRATLIKRGSDIQPFEELFDFFFL	-1.42
HMNAAFMKAERLLAILNILLTGKRVSSTELAKKLEVSVRTVYRDVEALSEAGFPVYATMGRDGGFGLIEGF	-2.09
HMNADAIIGRMGKVTEPITPDGYGRVEIDGDSWKATAVGGVAIAEGTRVSVVSLDSIIITVKTV	-1.44
HMNADAIVGRTGVVTEAIAADGFGRVQIDGDSWKAKASGNNGIDVGAKVRVLRIDSIILTVEK	-1.07
HMNAELSTVQAAEVLNVSRPFLIKLLEDGAIPHRKVGKHRRVRMEDVMSYKAAIDTEREAVLDQLAA	-0.13
HMNAISIDEAKKIALAKVSGASDQHIRIEADHDDGRLVYEGEIHYGRVEYEFEIDGSTGAIIEWDADRK	-0.286
HMNAKKSTLQLDLLKQLLEGNKISLKDFSLSNEISIRTAQRYIEDLLEIFEKNIVKEGDFYSFIS	-3.4
HMNAKNPRALAIQYVFKMQMGNFLHAKTDNQQQEQERIMTLFNEENKNTILPRWGKELLSYINRN	-0.74
HMNDENIIIEEIKYFIKSNQIKEQEKLPSERNLSELFTVSRFSLRKALRHLVDTGYLYVKDKSGYYYQGD	-2.55
HMNDLIKMPYLVGQLYDDVASNQEYADFQFKITEGNDPDKQPGEIMKQDPAADIMVKKNAEVELLVNG	0.374
HMNDLKEDTITVQSVEYIDSDDGTMVYIKDTNHQVYKQAFKEDESLIRISAGDVLHVKYQPMDNEIHLL	-0.341

Sequence	soluble fraction (log2)
HMNDMPELLSIKEASQWATEYLNKNVTTSNIAYLIQYGRIRKIGNNGSTQVLKDDLVKYYKDQK	-0.11
HMNDMWADITINANGKATLVVHTHEIKYLGLTGHLGKMEINGTAKEPVKDSSGDVVDYYFTFTDLDASMF	0.328
HMNDNFTPDDLNRLARIKDLPQAKKYALELISNKSAKPMKPEKVRWFANQLQKKKSVMDITKMMYDLLLA	-0.423
HMNDNTAINEFKKMVFTRMVHLQIDNAELSKLSGVTNSKILALKYGNSNTLKLGDIVKVAKTLNINLNDL	-2.86
HMNDPFVILGVSKDASQSEILEAYKQKRAYYQERVFDEGDEGAQAARMLTQLDDAYQQAMELSHES	0.183
HMNDPIESLTPREREVLTLMAEGRTNAAIAAQLVVTEGAVEKHTQHIFAKLGLLPDSAVHRRVKAVLALLS	-2.35
HMNDPNAPITENQLKAIHVLLDKLKVDDNLKHAYIADVLQLDNEPETLKTLTKAQGSMAIERMQLLKDN	0.736
HMNDQLIYSDFIRQVQDGQITEVTISGLNIAGTRSDGSVFNTLRPYIEDPKLIDDLLSHNVRIQGAE	0.168
HMNDRERIGKRIAQLRMEAGISQYKLAELTGLAPGNIARIETGKYSTGIDILSKIGDALGYQLDFI	-2.14
HMNDRLAGMEGQRGEAATNFDQGEGKVKVGDTVWLAKQSDSTVIVEGDQIVVTGSENGLLKVRL	-0.25
HMNDTLGVNIKRLRKEKGMTQDEVAKAVYTTRYNILRYESGKMTPSSEVIERLEKALGVPTGSLAQ	-0.348
HMNDTSLIIDNLMLKLGNNIKNFSEIYSLLRKNLAEYGEEFIKSKVDYVLKNFNDNIEENLKKLLTE	-0.394
HMNDVGKVLNQLGERDRMILLLTYWDELPLKEAARILEVSENNAKIILFRARSRFASLWSAGS	-3.14
HMNEAVVVPDVKGLTLDEADEFFKNSKLRYNVVDSVFSKDVAPGAIVELVPVAGSKVKENRIVFVTINAQ	-0.361
HMNEDTEDIKNINSLVNKLTENNFDIIRDSIVKLINKEHLIPYIIETIIEKSILHHRYVHLYVSILKE	0.219
HMNEDYSSMVGKTGFALTILRPAGKIMIEEEVFDAVAINGYISKGQEVEVVRYENAQLYVKVK	-1.04
HMNEFGIPDKKLQDIETRVNSMSLEQLNAARSMLIDEQEALNSSTGSASSGRLKEIAAELSTIQKALIAIA	-0.00417
HMNEFNEVVPDSLEGERLDRLLAFIGNISRSEASNIIKGGEVLINGKVVTRPSFKVTLGNRVEFSIRD	-0.531
HMNEGETLYRLRAGDGRARLDKFLAAALPDISRTRFKGLIESGHVRVGGETITEPAYRVKSEAEVELTVPE	0.0126
HMNEIALETAIEDVESFIQMQNRNLAFSIDEDTDRAVVTVRDSDSGDVIRQIPSEEVLALAERIQDLQQD	0.0361
HMNEIDDYDIQLLEYLSKGVSQEAMESVFKQAGITPNSKSTIEKRISKLKIYFKALNTTHLVSITKDLGL	-0.647
HMNEKEAEEAAEAQTEVPDVTGMAPAQAKNMLYQAGLSSEYRGEGETVSRQLPPAGETVNRGTKAVLYL	0.0203
HMNEKGTNSTINEITRISKPGRRVYVGSAEIPKVKSGRGLVLISTSKGVMTGAEAAKAKLGGELLLKV	-0.000493
HMNEKMKEIGLRIKELRELSDISAQGMADHLKIPLETYQEYEDGKKDIPASILFEISQKMEVDMGLLLTGE	-0.476
HMNELTDKQILLFSNKLAHNIPFSSKYSKPGESYEEFAERLANELIDPQKVKLYKPYLEEVGFK	0.788
HMNEMIFNQKKIGQFFMNPETNSPMIYPLELGHKMKIIELKNGWYNVTDEKTGLNGWVKEEDFGVTKPLDS	-0.346

Sequence	soluble fraction (log2)
HMNENDENLRQQAIDASKEVRRWGEPVTLPPMNAHDRRIIHITLEGESDLQTESTGEGNFKSVVISLK	-0.171
HMNEPSSYGYAISVALDRNGLGTVKGGTLYPLLARLEQAAHVETRWEAGDGGPGRKYYTITDSGRS	-0.214
HMNERLKQLRLSLNLNQEEFGKWLGISKSGVSDIESGRRKVTEQHIIMLSNHNISEKWLRTGEGEMFV	-1.21
HMNETNKMPNLVNQTDSSAIAQLNAMELGLKITTKEESSETVLAGYVIRTEPAADTELTKNQAVTVYVS	-0.00951
HMNETTVPDVINQNISTGKIIIEDADLEYRIQYIPSEKSSSIGTIINSIPIYGKRVKSGTIVDLKVLG	-0.248
HMNETVTNQTVLDLLKEGFTSEEIIGAIENSSTRTITYDINFMRQLKAAGADVTLTTYLQKIAKKDM	-0.136
HMNEWSIDINLADEKQWTAKTKLSPAIIQNIIRYKNYLGGFTNLNQIKKVYGFTEANYYLLKPHLQLGK	-0.837
HMNFDLDSFKQRMTLDGLYFGNEKQDVIALNNLSERYQLTWFDVYQLAKETSSNHKILPKRILVKLQQ	-2.09
HMNFEIEVTENGKRIDSYLAEELDLSRSKVQKLIKQELVTVNGKVVSNNYNVKLGDTILVNDD	0.113
HMNFFQEIGNSILIELNKKNWTQSMFAHKIGVSDEVFKQIVQGKKALNAVEIAKIANTLDVDPEKLLRK	-1.08
HMNFTEAEQRFHFLEDQRQRGVLSLEQYRAELAQLRVTDAWGRLWMLQEQTGQWFVFHEGQWRPSQ	-0.408
HMNGEDVTDAIRLPQISQYASVVSAYPGVRAFLLEMQRDFARKGSVIMDGRDIGTVVLPEAEVKIFLT	-0.367
HMNGGPHYLRDVRTSLGLSQADLAKAVGTSANMIHYLESGERALTLKWIRRISEALNVSPMRLIN	-2.06
HMNGLPDLSRYTGVSIVDGLASVGSDSSFAYRAKIAETLGISDYKGSAGQNLEMIRKLGGKV	-0.517
HMNGTGSVYKLSGKRRNPWRAVVTNGWAYNEEKGKLVQNRVTIGYYHTRDEAIQAIANYNSSP	-1.53
HMNGVFIMHTPDGKVLRTEEGEEAVITLFNWSGQLLWSKTSLGQLPLPEGTQGVLQVQYKSGDQHTIKT	-1.28
HMNHAPSLMRKIRRGLKEGRNPDDLLVNAKSISDYYYRSLSFYLLAPHFSSKSKQYKQVISLANS	-0.064
HMNHHTEQQLKALSNKVKDHRMRMRLLAVAHFKAGKNKADVARTLNVSRRMVNEWVANYFKGGVSALES	-3.43
HMNHLLYPNPANNFIWIKNSTSNTAVIYNLQGVMSKVEVSEEGKIDISRFSPGLYMIKQGERIYKFTIA	-1.75
HMNHLSYEQRLKIKEMLDGGFKKIDIARALGVHNATIYREIERGSVNGIYNPNKSEEQYRDHLSEK	0.378
HMNHYIGVDRAKEIALNHANLSETDVVFTKEKLENDDGGAEYEIEFHSGRTEYDYTIDAASGNIIEYDVDY	0.324
HMNIDGLIGKKALVTADIDNVNSKGQIKINGLEWTARSVDDEPIPMGTEVEITAISGVKAIVRKG	0.139
HMNIEANLEDILRRAMPSAAKLILENSLNINKIIGTGKEGRITKGDVLLYLKDKNLILENILN	-0.079
HMNIEEAESILKEIKTVLTDKEYEVYTLRAKGFTYQEIASLLNTTTKSVDGALSRIKTKINNIK	-0.674
HMNIFKLYEENIGPLTPMIADILKEDEAEFPDYWIREAIEIAVKKNARNWKYVHAVLESWQKE	-3.47
